B1: MATN2 (parent)
chain: TDDSYSCHCLKGFTLNPDKKTCRR

Variants of: B1
Assay: protein stability index of a GFP-peptide fusion (GPS, HEK-293T) (PSI 1-6); higher = more stable
Conditions: c terminus: a fixed tail appended
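Also: lentivirally expressed fusions sorted by FACS into six bins by GFP to DsRed ratio, PSI derived from sequencing read proportions per bin multiplied by bin number.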

Row | Variant | protein stability index
1 | K19G | 1.62
2 | K19H | 3.66
3 | K19I | 2.01
4 | K19L | 2.21
5 | K19M | 2.17
6 | K19N | 2.2
7 | K19P | 2.19
8 | K19Q | 2.41
9 | K19R | 2.12
10 | K19S | 2.18
11 | K19T | 2.06
12 | K19V | 2.3
13 | K19W | 1.16
14 | K19Y | 2.25
15 | K20A | 2.68
16 | K20C | 4.55
17 | K20D | 2.29
18 | K20E | 2.06
19 | K20F | 1.85
20 | K20G | 2.09
21 | K20H | 2.17
22 | K20I | 2.1

Row | Variant | protein stability index
23 | K20L | 1.32
24 | K20M | 1.78
25 | K20N | 2.04
26 | K20P | 1.93
27 | K20Q | 2.95
28 | K20R | 2.03
29 | K20S | 2.33
30 | K20T | 1.6
31 | K20V | 1.77
32 | K20W | 1.48
33 | K20Y | 1.53
34 | T21A | 2.2
35 | T21C | 2.75
36 | T21D | 2.6
37 | T21E | 2.89
38 | T21F | 1.57
39 | T21G | 1.33
40 | T21H | 2.62
41 | T21I | 2.4
42 | T21K | 2.06
43 | T21L | 2.15
44 | T21M | 2.57

Row | Variant | protein stability index
45 | T21N | 2.32
46 | T21P | 2.36
47 | T21Q | 2.64
48 | T21R | 2.34
49 | T21S | 2.36
50 | T21V | 2.41
51 | T21W | 1.83
52 | T21Y | 2.27
53 | C22A | 2
54 | C22D | 2.69
55 | C22E | 2.02
56 | C22F | 2.16
57 | C22G | 2.27
58 | C22H | 2.18
59 | C22I | 2.09
60 | C22K | 3.37
61 | C22L | 2.93
62 | C22M | 1.88
63 | C22N | 2.75
64 | C22P | 3
65 | C22Q | 2.27
66 | C22R | 2.86

Row | Variant | protein stability index
67 | C22S | 2.42
68 | C22T | 2.44
69 | C22V | 3.13
70 | C22W | 1.67
71 | C22Y | 1.94
72 | R23A | 2.41
73 | R23C | 2.83
74 | R23D | 2.62
75 | R23E | 2.52
76 | R23F | 1.86
77 | R23G | 2.62
78 | R23H | 1.91
79 | R23I | 2.02
80 | R23K | 2.76
81 | R23L | 2.36
82 | R23M | 1.5
83 | R23N | 2.71
84 | R23P | 2.56
85 | R23Q | 2.78
86 | R23S | 2.29
87 | R23T | 2.52
88 | R23V | 2.48

Row | Variant | protein stability index
89 | R23W | 2.26
90 | R23Y | 2.2
91 | R24A | 2.87
92 | R24C | 5.18
93 | R24D | 3.73
94 | R24E | 3.43
95 | R24F | 2.5
96 | R24G | 3.12
97 | R24H | 4.06
98 | R24I | 1.6
99 | R24K | 2.99
100 | R24L | 2.38
101 | R24M | 2.19
102 | R24N | 3.25
103 | R24P | 2.46
104 | R24Q | 2.61
105 | R24S | 2.87
106 | R24T | 3.15
107 | R24V | 2.32
108 | R24W | 1.99
109 | R24Y | 2.6

From the supplement of paper PMC10567573
